Laboratory results: US11732029B2, “Methods and compositions for the treatment of wounds” (The University of Chicago, priority 2017, dated 2023)

Assays:
[1] = molecular target: T1, VEGF-A145 (Homo sapiens, UniProt P15692); experiment: vWF binding to recombinant VEGF-A isoforms (ELISA); conditions: plate coated with 50 nM vWF domains, 1 μg/mL VEGF-A, vs BSA
T1 construct: All GFs and chemokines were purchased in their mature forms; purchased R & D Systems
T1 sequence (P15692 27-171 isoform P15692-6 limits assumed): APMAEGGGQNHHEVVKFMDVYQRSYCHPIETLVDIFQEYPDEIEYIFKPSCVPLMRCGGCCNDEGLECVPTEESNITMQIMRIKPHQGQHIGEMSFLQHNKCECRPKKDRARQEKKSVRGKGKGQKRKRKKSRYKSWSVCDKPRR
Experimental: (§1) ELISA was performed as previously reported1. In brief, ELISA plates (med binding: Greiner Bio-One) were coated with 50 nM BSA (GE Healthcare), pro-peptide containing recombinant vWF (Sino Biological), plasma-derived vWF (EMD Millipore), recombinant human vWF A1 domain (U-Protein Express), recombinant human vWF A2 domain (R & D systems), recombinant human vWF A3 domain (U-Protein Express), vWF A1 HBD peptide or scrambled/mutated HBD peptide (all peptides were synthesized by Genscript). After blocking with 2% BSA solution containing PBS-T, 1 μg/mL of recombinant human VEGF-A121 (PeproTech), recombinant human VEGF-A145 (R & D Systems), or recombinant human VEGF-A165 (PeproTech) was added. Bound VEGF-A was detected with 1 μg/mL of mouse anti-human VEGF-A antibody (clone: 26503, R & D systems). After 60 min of incubation, horseradish peroxidase (HRP) conjugated goat anti-mouse antibody (1:2000 dilution, Dako) was added and incubated for another 60 min. Color development and the absorbance measurement were done as described above.

[2] = molecular target: T2, VEGF-A165 (Homo sapiens, UniProt P15692); experiment: vWF binding to recombinant VEGF-A isoforms (ELISA); conditions: plate coated with 50 nM vWF domains, 1 μg/mL VEGF-A, vs BSA
T2 construct: All growth factors (GFs) and chemokines were purchased in their mature forms; purchased PeproTech; host or cells: Escherichia coli
T2 sequence (P15692 27-191 isoform P15692-4 limits assumed): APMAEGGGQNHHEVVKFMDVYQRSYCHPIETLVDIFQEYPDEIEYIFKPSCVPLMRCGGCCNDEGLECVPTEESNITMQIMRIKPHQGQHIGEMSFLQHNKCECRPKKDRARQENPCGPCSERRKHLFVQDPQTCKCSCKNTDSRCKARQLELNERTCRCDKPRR
Experimental: as §1

[3] = molecular target: T3, EGF (Homo sapiens, UniProt P01133); experiment: vWF binding to recombinant GFs (ELISA); conditions: VEGF-A121 signal as baseline
T3 construct: All GFs and chemokines were purchased in their mature forms; purchased PeproTech; host or cells: Escherichia coli
T3 sequence (P01133 971-1023 limits assumed): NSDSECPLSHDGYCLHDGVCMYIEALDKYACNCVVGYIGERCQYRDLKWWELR
Experimental: (§2) ELISA tests were performed as previously reported1. In brief, ELISA plates (med-binding, Greiner Bio-One) were coated with 50 nM GFs at 37° C. for 2 hrs. After blocking with 2% BSA solution containing PBS-T, 1 μg/mL of plasma-derived vWF (EMD Millipore) was added. Bound vWF was detected with 1 μg/mL of rabbit anti-human vWF antibody (Sino Biological). Then, HRP conjugated goat anti-rabbit antibody (Jackson ImmunoResearch) was added. After 60 min of incubation, 50 μL TMB substrate (Sigma-Aldrich) was added. The reaction was stopped by adding 25 μL of 2N H2SO4. Subsequently, the absorbance at 450 nm was measured and subtracted the absorbance at 570 nm.

[4] = molecular target: T4, FGF-1 (Homo sapiens, UniProt P05230); experiment: vWF binding to recombinant GFs (ELISA); conditions: VEGF-A121 signal as baseline
T4 construct: All GFs and chemokines were purchased in their mature forms; purchased PeproTech; host or cells: Escherichia coli
T4 sequence (P05230 16-155 limits assumed): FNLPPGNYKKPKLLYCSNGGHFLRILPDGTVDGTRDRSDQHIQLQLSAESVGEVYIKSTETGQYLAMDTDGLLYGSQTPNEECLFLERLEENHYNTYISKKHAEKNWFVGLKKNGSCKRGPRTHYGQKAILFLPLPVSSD
Experimental: as §2

[5] = molecular target: T5, TGF-β3 (Homo sapiens, UniProt P10600); experiment: vWF binding to recombinant GFs (ELISA); conditions: VEGF-A121 signal as baseline
T5 construct: All GFs and chemokines were purchased in their mature forms; purchased PeproTech; host or cells: eukaryotic cells (not specified)
T5 sequence (P10600 301-412 limits assumed): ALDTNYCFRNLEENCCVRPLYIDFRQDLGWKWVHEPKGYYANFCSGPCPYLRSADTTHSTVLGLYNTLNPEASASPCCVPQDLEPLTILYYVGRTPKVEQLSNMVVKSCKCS
Experimental: as §2

[6] = molecular target: T6, FGF-7 (Homo sapiens, UniProt P21781); experiment: vWF binding to recombinant GFs (ELISA); conditions: VEGF-A121 signal as baseline
T6 construct: All GFs and chemokines were purchased in their mature forms; purchased PeproTech; host or cells: Escherichia coli
T6 sequence (P21781 32-194): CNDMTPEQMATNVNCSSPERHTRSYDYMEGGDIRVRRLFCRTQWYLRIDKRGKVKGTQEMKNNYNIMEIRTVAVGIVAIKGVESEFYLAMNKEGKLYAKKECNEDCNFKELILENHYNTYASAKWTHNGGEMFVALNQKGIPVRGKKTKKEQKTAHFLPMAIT
Experimental: as §2

[7] = molecular target: T7, PDGF-DD (Homo sapiens, UniProt Q9GZP0); experiment: vWF binding to recombinant GFs (ELISA); conditions: VEGF-A121 signal as baseline
T7 construct: All GFs and chemokines were purchased in their mature forms; purchased PeproTech; host or cells: eukaryotic cells (not further specified)
T7 sequence (Q9GZP0 250-370 limits assumed): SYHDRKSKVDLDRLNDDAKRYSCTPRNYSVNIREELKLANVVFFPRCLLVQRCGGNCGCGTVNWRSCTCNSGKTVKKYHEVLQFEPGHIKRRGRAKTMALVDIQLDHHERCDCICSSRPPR
Experimental: as §2

[8] = molecular target: T8, PDGF-AA (Homo sapiens, UniProt P04085); experiment: vWF binding to recombinant GFs (ELISA); conditions: VEGF-A121 signal as baseline
T8 construct: All GFs and chemokines were purchased in their mature forms; purchased PeproTech; host or cells: Escherichia coli
Experimental: as §2

[9] = molecular target: T9, CXCL-11 (Homo sapiens, UniProt O14625); experiment: vWF binding to recombinant GFs (ELISA); conditions: VEGF-A121 signal as baseline
T9 construct: All growth factors (GFs) and chemokines were purchased in their mature forms; purchased PeproTech; host or cells: Escherichia coli
T9 sequence (O14625 22-94): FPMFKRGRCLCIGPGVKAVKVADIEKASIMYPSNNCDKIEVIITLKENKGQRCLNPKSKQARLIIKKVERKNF
Experimental: as §2

[10] = molecular target: T2, VEGF-A165; experiment: vWF binding to recombinant GFs (ELISA); conditions: VEGF-A121 signal as baseline
Experimental: as §2

[11] = molecular target: T10, FGF-18 (Homo sapiens, UniProt O76093); experiment: vWF binding to recombinant GFs (ELISA); conditions: VEGF-A121 signal as baseline
T10 construct: All GFs and chemokines were purchased in their mature forms; purchased PeproTech; host or cells: Escherichia coli
T10 sequence (O76093 28-207): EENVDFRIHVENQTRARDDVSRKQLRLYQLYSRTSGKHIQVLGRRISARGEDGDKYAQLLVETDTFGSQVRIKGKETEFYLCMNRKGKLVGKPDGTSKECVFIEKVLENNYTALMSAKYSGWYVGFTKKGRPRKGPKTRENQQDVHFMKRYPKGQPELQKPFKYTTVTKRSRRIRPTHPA
Experimental: as §2

[12] = molecular target: T11, IGF-II (Homo sapiens, UniProt P01344); experiment: vWF binding to recombinant GFs (ELISA); conditions: VEGF-A121 signal as baseline
T11 construct: All GFs and chemokines were purchased in their mature forms; purchased PeproTech; host or cells: Escherichia coli
Experimental: as §2

[13] = molecular target: T12, NT-3 (Homo sapiens, UniProt P20783); experiment: vWF binding to recombinant GFs (ELISA); conditions: VEGF-A121 signal as baseline
T12 construct: All GFs and chemokines were purchased in their mature forms; purchased PeproTech; host or cells: Escherichia coli
T12 sequence (P20783 139-257): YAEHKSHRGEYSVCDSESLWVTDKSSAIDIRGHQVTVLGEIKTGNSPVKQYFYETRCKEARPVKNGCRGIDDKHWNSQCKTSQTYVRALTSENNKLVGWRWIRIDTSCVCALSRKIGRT
Experimental: as §2

[14] = molecular target: T13, CXCL-12α (Homo sapiens, UniProt P48061); experiment: vWF binding to recombinant GFs (ELISA); conditions: VEGF-A121 signal as baseline
T13 construct: All GFs and chemokines were purchased in their mature forms; purchased PeproTech; host or cells: Escherichia coli
T13 sequence (P48061 22-89 limits assumed): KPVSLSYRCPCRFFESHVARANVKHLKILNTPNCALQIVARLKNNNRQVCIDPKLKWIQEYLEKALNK
Experimental: as §2

[15] = molecular target: T14, PDGF-BB (Homo sapiens, UniProt P01127); experiment: vWF binding to recombinant GFs (ELISA); conditions: VEGF-A121 signal as baseline
T14 construct: All growth factors (GFs) and chemokines were purchased in their mature forms; purchased PeproTech; host or cells: Escherichia coli
T14 sequence (P01127 82-190 limits assumed): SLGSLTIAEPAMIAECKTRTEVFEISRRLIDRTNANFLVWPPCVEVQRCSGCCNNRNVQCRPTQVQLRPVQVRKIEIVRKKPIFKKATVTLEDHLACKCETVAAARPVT
Experimental: as §2

[16] = molecular target: T15, IGF-I (Homo sapiens, UniProt P05019); experiment: vWF binding to recombinant GFs (ELISA); conditions: VEGF-A121 signal as baseline
T15 construct: All GFs and chemokines were purchased in their mature forms; purchased PeproTech; host or cells: Escherichia coli
Experimental: as §2

| Substance | binding to VEGF-A145 [1] | binding to VEGF-A165 [2] | vWF binding to EGF [3] | vWF binding to FGF-1 [4] | vWF binding to TGF-β3 [5] | vWF binding to FGF-7 [6] | vWF binding to PDGF-DD [7] | vWF binding to PDGF-AA [8] | vWF binding to CXCL-11 [9] | vWF binding to VEGF-A165 [10] | vWF binding to FGF-18 [11] | vWF binding to IGF-II [12] | vWF binding to NT-3 [13] | vWF binding to CXCL-12α [14] | vWF binding to PDGF-BB [15] | vWF binding to IGF-I [16] |
| --- | --- | --- | --- | --- | --- | --- | --- | --- | --- | --- | --- | --- | --- | --- | --- | --- |
| vWF: human plasma-derived von Willebrand factor (EMD Millipore) | bound | bind | did not show binding | not | not | bound | bound | bound | bound | bound | bound | Neither insulin-like growth factor-I (IGF-I) nor IGF-II bound | relevant binding | did not | bound | Neither insulin-like growth factor-I (IGF-I) nor IGF-II bound |
| YIGLKDRKRPSELRRIASQVKYAC [vWF HBD] | able to bind | able to bind | – | – | – | – | – | – | – | – | – | – | – | – | – | – |
